Target: glycosylated myrosinase without GST-tag (produced in S. cerevisiae MGY70-myr) (broccoli)
Test: SEC; Sephacryl S-200 HR column 0.7 x 30 cm, 1 mL of purified myrosinase fraction (1 mg/mL) loaded, 0.3 mL/min, 0.2 M Tris-HCl pH 7.4; mass from a calibration curve with protein standards; self-association, monomer to dimer

Substance: glycosylated myrosinase without GST-tag (produced in S. cerevisiae MGY70-myr) (enzyme)
- stoichiometry N: 2

From article PMC8961631
